# ± gives the uncertainty stated by the source.
# Test: protein stability index of a GFP-peptide fusion (yeast GPS) (PSI 1-4); higher = more stable; sorted into four equal gates, so the index is relative within each strain
# Procedure, shortened: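 Sequencing reads from sorted gates were used to score each peptide. The library consisted of tiled 17-residue yeast protein peptides fused downstream of GFP on a Cherry-expressing plasmid, pooled and carried in yeast. Mid-log cultures in leucine-free medium were split into four equal gates by GFP/Cherry ratio, and each gate's plasmids were PCR-amplified and Illumina-sequenced. The protein stability index adds up, over all gates, the read frequency multiplied by the gate number.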
Sequence,protein stability index (doa10∆),protein stability index (pdr5∆),protein stability index (san1∆),protein stability index (ubr1∆)
TATLAWGVNLPAHTVII [BRR2],1.26 ± 0.065,1.4 ± 0.067,1.81 ± 0.089,1.79 ± 0.064
IDLLWKGKTPKNAAESS [PRP28],2.86 ± 0.17,3.12 ± 0.18,2.91 ± 0.15,3.14 ± 0.13
EWKSEFVVPTFGQDVSP [SNM1],2.25 ± 0.052,2.29 ± 0.055,3.04 ± 0.063,2.24 ± 0.05
DDLADDDFEEDEDEEDD [RPC31],–,3.31 ± 0.12,3.21 ± 0.09,3.46 ± 0.29
AGVNNDNTKESKDVKMN [RTT102],3.1 ± 0.25,–,–,2.35 ± 0.24
NRSNDALIKFMEYHISN [FAS2],2.93 ± 0.074,2.55 ± 0.078,2.96 ± 0.084,2.45 ± 0.057
KAKSVVNDVEELGEIID [RMP1],3.4 ± 0.14,–,2.8 ± 0.26,–
HDFIKGLIMLNLQPASV [NUT1],1.83 ± 0.059,1.24 ± 0.071,1.22 ± 0.14,1.24 ± 0.065
SEVGNCSGSGMGGVSAL [FAS2],3.15 ± 0.075,3.38 ± 0.064,3.29 ± 0.056,3.31 ± 0.05
VAGGVAGGEAGEAEAEK [RPP1A],–,3.26 ± 0.17,–,3.45 ± 0.13
ESVPTPANAEPQAVTIT [ITC1],2.88 ± 0.084,2.92 ± 0.075,2.62 ± 0.063,3.18 ± 0.16
LVTCEGSEEKAFVPKKR [SRP54],2.19 ± 0.12,1.85 ± 0.11,1.62 ± 0.13,1.61 ± 0.066
NEAEQVYLSLLDKDSSQ [RPN6],3.03 ± 0.2,3.29 ± 0.076,–,3.45 ± 0.22
LSVMCGCGTVKRFNIGA [RPR2],3.16 ± 0.21,2.97 ± 0.12,3.14 ± 0.14,2.07 ± 0.18
SELAPIEEHPTVVDAID [IRR1],–,3.62 ± 0.19,3.25 ± 0.11,3.05 ± 0.071
DFLLSDWNKRFSHLAGG [BRR2],2.71 ± 0.053,2.82 ± 0.055,2.96 ± 0.065,2.85 ± 0.048
IMVLDASIGQAAEQQSK [SRP54],–,2.78 ± 0.29,3.18 ± 0.1,2.97 ± 0.13
GSEEKAFVPKKRKTNII [SRP54],3.12 ± 0.069,3.2 ± 0.077,2.88 ± 0.067,3.02 ± 0.06
KKKQQGAKQTQGGAMNK [SRP72],2.07 ± 0.12,2.54 ± 0.1,3.37 ± 0.082,3.58 ± 0.062
SGSTEKAFKICEAAVEI [SIR3],2.97 ± 0.11,2.71 ± 0.11,2.84 ± 0.15,3.18 ± 0.16
GAKYVIRDSGDRIDLRY [RPO21],3.23 ± 0.16,3.31 ± 0.15,–,3.45 ± 0.13
DISAMQPVNPKPFLKGL [SMX3],3.12 ± 0.067,3.18 ± 0.068,3.2 ± 0.051,3.22 ± 0.053
VLDKMHARARGPRAVLT [RET1],2.88 ± 0.11,3.22 ± 0.11,3.15 ± 0.067,3.09 ± 0.087
LRGEYNDLQSETKTKKE [SMC4],–,3.4 ± 0.087,3.24 ± 0.072,2.82 ± 0.066
VVMAMYNPKMIDDRDYV [RET1],3.36 ± 0.27,–,–,3.45 ± 0.27
FQNTNTRSALKLVRESE [QCR2],2.7 ± 0.078,2.94 ± 0.074,2.81 ± 0.088,2.64 ± 0.07
NTTQDNGGDKELEMIGG [YCS4],3.26 ± 0.17,3.06 ± 0.17,2.46 ± 0.2,3.26 ± 0.23

Sequence,protein stability index (doa10∆),protein stability index (pdr5∆),protein stability index (san1∆),protein stability index (ubr1∆)
KKWNDLKNKNFKCQEKD [SIR2],3.46 ± 0.23,3.34 ± 0.14,3.37 ± 0.072,3.11 ± 0.12
GRTGRAANEGTAVSFVS [PRP28],2.7 ± 0.26,–,2.81 ± 0.27,2.7 ± 0.26
FDDILKVGAEMMMQQQL [MED2],2.66 ± 0.11,2.44 ± 0.093,2.53 ± 0.13,2.46 ± 0.086
AGTTDNSFIKANLPWLG [RPN2],1.48 ± 0.1,1.72 ± 0.064,1.39 ± 0.086,1.36 ± 0.065
SKRLPLRFPEHTSSGSV [BRR2],2.9 ± 0.096,2.97 ± 0.083,2.74 ± 0.14,2.34 ± 0.065
AFPKDDRSKPVALTSFL [RPL3],2.77 ± 0.1,2.75 ± 0.083,3.33 ± 0.054,1.95 ± 0.045
ISSSAIPYSRNAPAWFK [RPS13],2.33 ± 0.09,2.9 ± 0.071,2.21 ± 0.086,2.37 ± 0.063
PFREFLQVLIDQLDSEA [ECM29],3.38 ± 0.095,2.6 ± 0.12,3.08 ± 0.089,3.01 ± 0.065
ENGQRDLDRIAAQTLEE [RPS19A],3.2 ± 0.084,3.16 ± 0.086,3.28 ± 0.097,3.19 ± 0.093
EELLAQYESQAPDGSAS [SWP82],3.02 ± 0.061,2.95 ± 0.084,3.13 ± 0.068,3.08 ± 0.046
GKAKGDIPGVRFKVVKV [RPS23A],3.32 ± 0.19,3.42 ± 0.18,–,–
KSNGSSDDDNIGQSEEL [ISW2],3.3 ± 0.1,3.44 ± 0.09,3.31 ± 0.08,3.42 ± 0.12
AEENLKKRIRLPSEERI [YIL149C/MLP2],2.89 ± 0.081,2.48 ± 0.066,2.61 ± 0.08,3.08 ± 0.044
ADVFTDDDLFETLVLSY [YCG1],2.46 ± 0.09,2.65 ± 0.056,2.85 ± 0.064,2.06 ± 0.041
SKNTAVSKVQKRKVLEL [SRP72],2.66 ± 0.11,2.1 ± 0.16,–,–
LSEATESDLYKLKECPF [RPB2],3.12 ± 0.11,2.91 ± 0.19,3.23 ± 0.1,2.91 ± 0.1
DLFTHLWNQWLKLNTSL [SRP68],1.76 ± 0.048,2.05 ± 0.047,2.27 ± 0.066,1.83 ± 0.038
VSPAFRVQVGDIVTVGQ [RPS11A],2.49 ± 0.091,2.96 ± 0.093,2.55 ± 0.14,2.42 ± 0.078
APGTEAGIVPVSANTPK [SWI1],3.06 ± 0.053,2.94 ± 0.065,3.08 ± 0.053,3.18 ± 0.054
ISLLCKNFKGIEEIEYN [PCI8],2.94 ± 0.082,3.31 ± 0.075,3.11 ± 0.04,3.01 ± 0.061
QPDENTKEMDEVEEDDE [SWI3],3.22 ± 0.17,3.49 ± 0.15,3.53 ± 0.092,3.43 ± 0.054
EAMYKLQLASLQQKQRD [SMC3],2.71 ± 0.091,2.76 ± 0.078,2.52 ± 0.087,2.54 ± 0.063
TQKRLAASVVGVGKRKV [RPL19A],1.33 ± 0.1,1.32 ± 0.16,1.13 ± 0.11,1.79 ± 0.11
LTCSLYELYINKLTILG [IRR1],1.36 ± 0.032,1.36 ± 0.04,1.34 ± 0.059,1.48 ± 0.045
PINLKFLQGESPFSITF [YMR129W/POM152],2.53 ± 0.079,2.1 ± 0.063,2.63 ± 0.063,2.32 ± 0.071
VAADGKLVTYIVKFKQK [YLR335W/NUP2],2.17 ± 0.059,2.11 ± 0.054,2.09 ± 0.064,2.02 ± 0.05

# Reference: the supplement of paper PMC9732359
